Measurements: patent publication US20200264182A1 (J OIL MILLS, published 2020)
Values belong to the binder of their own block, whether it stands above or below them. Where no end group is shown, it is not given here.

T1: Aleuria aurantia lectin (AAL), biotin-labeled (Aleuria aurantia, UniProt P18891 2-313, biotin label (sites not given))
T1 construct: Bought reagent, used as the comparative lectin
T1 sequence (looked up): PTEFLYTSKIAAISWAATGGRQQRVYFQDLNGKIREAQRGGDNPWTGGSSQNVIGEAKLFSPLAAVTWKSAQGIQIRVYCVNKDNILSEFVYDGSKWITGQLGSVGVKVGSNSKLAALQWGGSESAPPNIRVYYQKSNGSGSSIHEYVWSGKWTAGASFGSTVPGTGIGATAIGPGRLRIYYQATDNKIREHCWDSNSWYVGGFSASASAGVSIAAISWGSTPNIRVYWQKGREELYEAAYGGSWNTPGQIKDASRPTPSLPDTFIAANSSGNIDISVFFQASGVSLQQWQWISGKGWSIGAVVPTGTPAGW

B1: Pholiota squarrosa lectin (PhoSL), biotin-labeled (other)
chain: APVPVTKLVCDGDTYKCTAYLDFGDGRWVAQWDTNVFHTG
modifications: cysteine pairing not given here; also: biotin label, site not given here
notes: Lectin; also called biotin-labeled PhoSL; fucose α1→6 specific lectin
B2: fucosylated PSA (prostate specific antigen) (enzyme)
chain: not shown
modifications: N-linked sugar chain with α1→6 fucose (site not stated)
notes: also called serum fucosylated PSA

Key:
[1] = target: B2; experiment: sandwich ELISA on serum, biotin-labeled PhoSL peptide, pH 9.6
[2] = target: B2; experiment: sandwich ELISA: PSA captured on anti-PSA antibody, biotin-lectin detected with HRP-streptavidin
[3] = target: T1, Aleuria aurantia lectin (AAL), …; experiment: sandwich ELISA on serum, biotin-labeled AAL, pH 7.4

binding result [1]: binds
Binder: KPVPVTKLVCDGDTYKCTAKLDFGDGRWVAQWDTNVFHK (cysteine pairing not given here; also: biotin label, sites not given here) [Pholiota squarrosa lectin peptide (PhoSL peptide), biotin-labeled]

Binder: B1
binding result [2]: binds

Binder: B2
binding result [3]: binds
